According to patent US20050228169A1 (published 2005):

Target: T1, GST-syntaxin-1a (1-266AA) (human, UniProt P08515 1-218 = GST; Q16623 1-266)
T1 construct: Expressed in E. coli DH5a and purified on glutathione-Sepharose; also called GST-syntaxin-1a fused protein; syntaxin-1a-GST
Test: GST pull-down: GST-syntaxin-1a (17 µg) on glutathione-Sepharose, 16 hours at 4° C.; Western blot with anti-penta His antibody
Description: KIAA1006 polypeptide (the histidine-tagged KIAA1006 polypeptide described above) and its C-terminal truncated product (the histidine-tagged C-terminal truncation product of KIAA1006 polypeptide described above) purified with a cobalt resin were respectively mixed with glutathione-Sepharose (bed volume 10 μl) to which GST (17 μg) was bound, stirred for 6 hours at 4° C., and then centrifuged. The obtained supernatants (GST-glutathione-Sepharose unadsorbed fractions) were respectively added to glutathione-Sepharose (bed volume 10 μl) to which GST-syntaxin-1a (17 μg) was bound, and after stirring for 16 hours at 4° C., the resultants were subjected to centrifugation. The fractions adsorbed to GST-glutathione-Sepharose and the fractions adsorbed to GST-syntaxin-1a-glutathione-Sepharose were eluted with SDS-PAGE sample buffer, respectively, and the binding of syntaxin-1a to KIAA1006 polypeptide or to its C-terminal truncation product was analyzed by Western blotting using anti-penta His antibody (Qiagen).
For the SDS-PAGE, 4-12% Bis-Tris Gel (NOVEX) was used. The detection of a secondary antibody that was labeled with horseradish peroxidase was carried out using ECL Western blotting detection reagents (Amersham Pharmacia Biotech).

T1 sequence (P08515 1-218, tags or fused parts left off): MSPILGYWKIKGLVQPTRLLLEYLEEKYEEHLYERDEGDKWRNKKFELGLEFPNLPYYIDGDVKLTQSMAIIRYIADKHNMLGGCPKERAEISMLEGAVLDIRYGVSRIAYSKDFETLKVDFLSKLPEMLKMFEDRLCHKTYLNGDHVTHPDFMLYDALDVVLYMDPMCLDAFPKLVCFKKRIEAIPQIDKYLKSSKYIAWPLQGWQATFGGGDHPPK

B1: histidine-tagged KIAA1006 C-terminal truncated polypeptide (1-1157AA) (other)
chain: HHHHHHMKKFNFRKVLDGLTASSPGSGSSSGSNSGGGAGSGSVHPAGTAGVLREEIQETLTSEYFQICKTVRHGFPHQPTALAFDPVQKILAIGTRTGAIRILGRPGVDCYCQHESGAAVLQLQFLINEGALVSASSDDTLHLWNLRQKRPAILHSLKFNRERITYCHLPFQSKWLYVGTERGNTHIVNIESFILSGYVIMWNKAIELSTKTHPGPVVHLSDSPRDEGKLLIGYENGTVVFWDLKSKRAELRVYYDEAIHSIDWHHEGKQFMCSHSDGSLTLWNLKSPSRPFQTTIPHGKSQREGRKSESCKPILKVEYKTCKNSEPFIIFSGGLSYDKACRRPSLTIMHGKAITVLEMDHPIVEFLTLCETPYPNEFQEPYAVVVLLEKDLIVVDLTQSNFPIFENPYPMDIHESPVTCTAYFADCPPDLILVLYSIGVKHKKQGYSNKEWPISGGAWNLGAQTYPEIIITGHADGSIKFWDASAITLQMLYKLKTSKVFEKQKVGEGKQTCEIVEEDPFAIQMIYWCPESRIFCVSGVSAYVIIYKFSRHEITTEIVSLEVRLQYDVEDIITPEPETSPPFPDLSAQLPSSRSLSGSTNTVASEGVTKDSIPCLNVKTRPVRMPPGYQAELVIQLVWVDGEPPQQITSLAVSSAYGIVAFGNCNGLAVVDFIQKTVLLSMGTIDLYRSSDLYQRQPRSPRKNKQFIADNFCMRGLSNFYPDLTKRIRTSYQSLTELNDSPVPLELERCKSPTSDHVNGHCTSPTSQSCSSGKRLSSADVSKVNRWGPGRPPFRKAQSAACMEISLPVTTEENRENSYNRSRSSSISSIDKDSKEAITALYFMDSFARKNDSTISPCLFVGTSLGMVLIISLNLPLADEQRFTEPVMVLPSGTFLSLKGAVLTFSCMDRMGGLMQPPYEVWRDPNNIDENEKSWRRKVVMNSSSASQEIGDHQYTIICSEKQAKVFSLPSQTCLYVHNITETSFILQANVVVMCSSACLACFCANGHIMIMSLPSLRPMLDVNYLPLTDMRIARTFCFTNEGQALYLVSPTEIQRLTYSQEMCDNLQDMLGDLFTPIETPEAQNRGFLKGLFGGSGQTFDREELFGEASAGKASRSLAQHIPGPGSIEGMKGAAGGVMGELTRARIALDERGQRLGELEEKT
notes: Expressed in sf9 insect cells by baculovirus and purified on cobalt resin; The junction of the tag is as noted for m1; also called C-terminal truncated product; C-terminal truncation product of KIAA1006 polypeptide
binding result: no binding
